Data published in patent US20050143472A1, “Novel treatment for pathologies associated with oxidative damage” (priority 2002, published 2005).

Test: Freeze/thaw stability of recombinant mPAO activity
Assay type: physicochemical
Experimental: Using the conditions for the steady-state kinetic assay described below, mPAO was determined to be stable at 2-4 mg/mL when frozen at −20° C. or −80° C. and thawed through several cycles. […] Thus, mPAO was stored at −20° C. in the presence of 33% (v/v) ethylene glycol. Ethylene glycol elimination and buffer exchange was accomplished easily by several concentration/dilution cycles using Centricon-10 centrifuge concentrators.

B1: mPAO: recombinant murine peroxisomal polyamine oxidase (SEQ ID NO:4) produced in E. coli (protein, listed as Mus musculus)
chain: MAFPGPRVLVVGSGIAGLGAAQKLCSHRAAPHLRVLEATASAGGRIRSERCFGGVVELGAHWIHGPSQDNPVFQLAAEFGLLGEKELSEENQLVDTGGHVALPSMIWSSSGTSVSLELMTEMARLFYGLIERTREFLNESETPMASVGEFLKKEISQQVASWTEDDEDTRKRKLAILNTFFNIKCCVSGTHSMDLVALAPFGEYTVLPGLDCILAGGYQGLTDRILASLPKDTVAFDKPVKTIHWNGSFQEAAFPGETFPVLVECEDGARLPAHHVIVTVPLGFSKEHQDTFFEPPLPAKKAEAIKKLGFGTNNKIFLEFEEPFWEPDCQFIQVVWEDTSPLQDTALSLQDTWFKKLIGFLVQPSFESSHVLCGFIAGLESEFMETLSDEEVLLSLTQVLRRVTGNPQLPAAKSVLSSRWHSAPYTRGSYSYVAVGSTGDDLDLMAQPLPADGTGTQLQVLFAGEATHRTFYSTTHGALLSGWREADRLIGLWDSQAEQSRPRL
- stability of activity on freezing and thawing (30 μg/mL, several freeze/thaw cycles): activity was lost quickly
- stability of activity on freezing and thawing (2-4 mg/mL, frozen at −20° C. or −80° C., several cycles): stable
- stability of activity on freezing and thawing (33% (v/v) ethylene glycol added, 20 μg/mL to 4 mg/mL): stable for several cycles of freezing and thawing
